For 53 sequences, protein stability index results are on record in the supplement of paper PMC10567573.

± gives the standard deviation.

The nature of this data set: protein stability index of a GFP-peptide fusion (GPS, HEK-293T) (PSI 1-6); higher = more stable. As to conditions: c terminus: a fixed tail appended.
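Further: 24-mer peptide tiles fused after GFP, lentivirally expressed, FACS-sorted into six equal bins by GFP/DsRed ratio, decoded by Illumina sequencing, PSI is the read-weighted mean bin number.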

With LHARLRELLCELGRPSMVWLSANP [PRAME], the protein stability index is, setting by setting: (treatment: DMSO) 2.65 ± 0.57; (treatment: MLN4924 1 uM, 8 h) 2.39 ± 0.42.

For LHLASDFFLKHPDKDVRLLVACCL [PDS5B], the protein stability index was 2.23 ± 0.79 (treatment: DMSO) and 2.39 ± 0.43 (treatment: MLN4924 1 uM, 8 h).

For LHLGLPWRMLRPQLVNSSADNMLE [PPEF2], the protein stability index (treatment: DMSO) was 2.87 ± 0.31 and the protein stability index (treatment: MLN4924 1 uM, 8 h) stood at 2.67 ± 0.48.

Regarding LHVWQITWAMRQRGTHAVVGVATA [SPSB1], the protein stability index turned out to be 2.58 ± 0.31 (treatment: DMSO) and 2.51 ± 0.64 (treatment: MLN4924 1 uM, 8 h).

Turning to LICLKKNHEEEVNTLRSQLGDRLN [KRT34], the protein stability index by setting is: (treatment: DMSO) 3.33 ± 0.21; (treatment: MLN4924 1 uM, 8 h) 3.45 ± 0.37.

LIDQRYFQVLCSINSIIHNPRAPV [CEP70]: the protein stability index (treatment: MLN4924 1 uM, 8 h) was found to be 2.07 ± 0.12.

With LIYTVMLAFRSGSDNLLVILKRKW [SLC35F2], the protein stability index (treatment: DMSO) amounted to 2.3 ± 0.91 and the protein stability index (treatment: MLN4924 1 uM, 8 h) was 1.84 ± 0.51.

In the case of LKDIFMFITRQLKGLEDTKSPQFN [PDS5B], the protein stability index reads like this: (treatment: DMSO) 2.11 ± 0.058; (treatment: MLN4924 1 uM, 8 h) 2.54 ± 0.31.

For LKDIHDDQDYLHSLGKARTAQVQK [FLOT1], the protein stability index runs as follows: (treatment: DMSO) 4.67 ± 0.18; (treatment: MLN4924 1 uM, 8 h) 4.56 ± 0.24.

On to LKGSRVSILFGHENRVSTLRVSPD [GNB5], for which the protein stability index stood at 2.96 ± 0.15 (treatment: DMSO) and 3.02 ± 0.29 (treatment: MLN4924 1 uM, 8 h).

For the sequence LKGYLYAVGGRNAAGELPTVECYN [KLHL13], the protein stability index is 2.37 ± 0.51 (treatment: DMSO) and 2.67 ± 0.34 (treatment: MLN4924 1 uM, 8 h).

Consider LKKEPGHPWKWSNGKEFNNWFNVT [CD69], for which the protein stability index stood at 2.14 ± 0.13 (treatment: DMSO) and 2.23 ± 0.25 (treatment: MLN4924 1 uM, 8 h).

Take LKNKKGAKQQKFIKAVTHQVKFGQ [ZC3H15]: the protein stability index worked out at 3.14 ± 0.57 (treatment: DMSO) and 3.25 ± 0.39 (treatment: MLN4924 1 uM, 8 h).

For LKYLHEQEILHRDLKLGNFFINEA [PLK2], the protein stability index by setting is: (treatment: DMSO) 1.85 ± 0.18; (treatment: MLN4924 1 uM, 8 h) 1.97 ± 0.3.

As to LLEQSLEEFAQAESKDQGKTLALA [ALDH8A1], the protein stability index is 4.68 ± 0.33 (treatment: DMSO) and 4.68 ± 0.14 (treatment: MLN4924 1 uM, 8 h).

Regarding LLKYRAREPVTKAEMLGSVVGNWQ [MAGEA3], the protein stability index runs as follows: (treatment: DMSO) 2.39 ± 0.2; (treatment: MLN4924 1 uM, 8 h) 2.51 ± 0.28.

LLLYRIRKDVGCNRFEVTLEKSNK [VPS39]: the protein stability index came out at 2.21 ± 0.35 (treatment: DMSO) and 2.14 ± 0.3 (treatment: MLN4924 1 uM, 8 h).

On to LLSCGKILTGCKNMLFQQNKDGIG [ACSBG2], for which the protein stability index is, setting by setting: (treatment: DMSO) 2.13 ± 0.42; (treatment: MLN4924 1 uM, 8 h) 2.23 ± 0.17.

For LLSRLEEEEQDILQRLRENAAHLG [TRIM39], the protein stability index amounted to 3.63 ± 0.16 (treatment: DMSO) and 3.71 ± 0.33 (treatment: MLN4924 1 uM, 8 h).

As to LLSRNQLSTAASLGPSGLQNHGQH [LCOR], the protein stability index worked out at 3.28 ± 0.095 (treatment: DMSO) and 3.46 ± 0.23 (treatment: MLN4924 1 uM, 8 h).

Turning to LMDGGDLPSVTDIRRPRLYLLQWL [PLK2], the protein stability index reads like this: (treatment: DMSO) 2.48 ± 0.17; (treatment: MLN4924 1 uM, 8 h) 2.5 ± 0.27.

As for LMSESEWRNLGVQQSQGWVHYMIH [CKS1B], the protein stability index runs as follows: (treatment: DMSO) 2.42 ± 0.35; (treatment: MLN4924 1 uM, 8 h) 2.05 ± 0.31.

Turning to LNGSSQPTTRNYPELNNNQYNRSS [CDC14A], the protein stability index reads like this: (treatment: DMSO) 4.19 ± 0.17; (treatment: MLN4924 1 uM, 8 h) 4.34 ± 0.09.

For the sequence LNPSKLMEKEINGSKVTCRGLLEY [ATL3], the protein stability index came out at 2.92 ± 0.29 (treatment: DMSO) and 2.96 ± 0.2 (treatment: MLN4924 1 uM, 8 h).

For LPCARVQICRAQGLETLFSKAQEL [ZSWIM9], the protein stability index worked out at 2.87 ± 0.51 (treatment: DMSO) and 2.33 ± 0.79 (treatment: MLN4924 1 uM, 8 h).

Consider LPGNHSTSQEIFRQRFRHLRYQET [ZNF232], for which the protein stability index runs as follows: (treatment: DMSO) 3.13 ± 0.17; (treatment: MLN4924 1 uM, 8 h) 3.39 ± 0.19.

Take LPGPTRPVLGRRAVGGRLRLVPGG [HAGHL]: the protein stability index runs as follows: (treatment: DMSO) 3.53 ± 0.41; (treatment: MLN4924 1 uM, 8 h) 3.67 ± 0.23.

With LPIQTPGAFLRTCLLSSNSRSLLT [TLE6], the protein stability index came out at 2.06 ± 0.34 (treatment: DMSO) and 2.1 ± 0.19 (treatment: MLN4924 1 uM, 8 h).

In the case of LPPALVPAGGLAPGGGRGALLDQI [WAS], the protein stability index (treatment: DMSO) came out at 3.69 ± 0.12 and the protein stability index (treatment: MLN4924 1 uM, 8 h) was found to be 3.71 ± 0.25.

As to LPPIPHVFSAGTGSAILPHFHHAF [PLAGL1], the protein stability index (treatment: DMSO) turned out to be 2.15 ± 0.28 and the protein stability index (treatment: MLN4924 1 uM, 8 h) worked out at 2.11 ± 0.1.

Consider LPSLVLARLVFVPLLLLCNIKPRR [SLC29A1], for which the protein stability index reads like this: (treatment: DMSO) 2.79 ± 0.57; (treatment: MLN4924 1 uM, 8 h) 2.73 ± 0.41.

For LPTLSHIQEAQSAWKDDFALNSML [YJU2B], the protein stability index runs as follows: (treatment: DMSO) 3.13 ± 0.3; (treatment: MLN4924 1 uM, 8 h) 3.04 ± 0.23.

On to LQFTILLSLIGVRVDVDTYLTSQL [NFE2L1], for which the protein stability index reads like this: (treatment: DMSO) 2.97 ± 0.47; (treatment: MLN4924 1 uM, 8 h) 3.13 ± 0.27.

Consider LQGTESLNRATQSIERSHRIATET [VTI1B], for which the protein stability index is, setting by setting: (treatment: DMSO) 4.65 ± 0.18; (treatment: MLN4924 1 uM, 8 h) 4.76 ± 0.14.

Regarding LQLFSSTLVGCWSDVVGRRSSLLA [MFSD9], the protein stability index is 2.59 ± 0.65 (treatment: DMSO) and 2.38 ± 0.47 (treatment: MLN4924 1 uM, 8 h).

Sequence LQLLQSRTSRKFLACRLTPDMETK [INTS3] had a protein stability index (treatment: DMSO) of 2.69 ± 0.18 and a protein stability index (treatment: MLN4924 1 uM, 8 h) of 2.68 ± 0.2.

Regarding LRALGELLRRDLGVGTSMEGASPL [FANCE], the protein stability index by setting is: (treatment: DMSO) 2.92 ± 0.32; (treatment: MLN4924 1 uM, 8 h) 2.91 ± 0.43.

LRAVRQRSEFTLMAKRIGKDLSNT [STX5]: the protein stability index is, setting by setting: (treatment: DMSO) 2.64 ± 0.23; (treatment: MLN4924 1 uM, 8 h) 2.78 ± 0.37.

Regarding LRCGNQGKGWKATRLFHDSAVTSV [DCAF4], the protein stability index is 2.19 ± 0.21 (treatment: DMSO) and 2.27 ± 0.22 (treatment: MLN4924 1 uM, 8 h).

Turning to LRDGAVPLPESRREIEELLAEAKY [KCTD10], the protein stability index is, setting by setting: (treatment: DMSO) 4.5 ± 0.25; (treatment: MLN4924 1 uM, 8 h) 4.66 ± 0.28.

As for LRDWEDLQQDFQNIQETHRLYRLK [TMEM120A], the protein stability index (treatment: DMSO) amounted to 3.38 ± 0.28 and the protein stability index (treatment: MLN4924 1 uM, 8 h) was determined as 3.49 ± 0.4.

Consider LRGPSPWGFRLVGGRDFSAPLTIS [PDLIM4], for which the protein stability index turned out to be 2.79 ± 0.2 (treatment: DMSO) and 2.44 ± 0.22 (treatment: MLN4924 1 uM, 8 h).

With LRHDEVRTYFHEFGHVMHQICAQV [NLN], the protein stability index was 2.31 ± 0.12 (treatment: DMSO) and 2.22 ± 0.26 (treatment: MLN4924 1 uM, 8 h).

On to LRLEREEYVLLKALALANSDSVHI [ESRRA], for which the protein stability index reads like this: (treatment: DMSO) 2.51 ± 0.15; (treatment: MLN4924 1 uM, 8 h) 2.27 ± 0.2.

Consider LRSSDLYRHQRLHTGERPYECTVC [ZNF449], for which the protein stability index by setting is: (treatment: DMSO) 3.05 ± 0.17; (treatment: MLN4924 1 uM, 8 h) 3.17 ± 0.29.

On to LRTLDKKTFYKTADISQMLVCTAD [TAF7L], for which the protein stability index runs as follows: (treatment: DMSO) 2.61 ± 0.32; (treatment: MLN4924 1 uM, 8 h) 2.65 ± 0.41.

For LRTLSRAKFWPRRRFNFFVLENNL [DNAAF3], the protein stability index runs as follows: (treatment: DMSO) 2.33 ± 0.99; (treatment: MLN4924 1 uM, 8 h) 2.15 ± 0.087.

For the sequence LRYTLWIPLYPLGCLAEAVSVIQS [HACD3], the protein stability index came out at 3.08 ± 0.49 (treatment: DMSO) and 3.11 ± 0.37 (treatment: MLN4924 1 uM, 8 h).

Regarding LSCLHSVCEQCLQILYESCPKYKF [RNF208], the protein stability index runs as follows: (treatment: DMSO) 2.2 ± 0.25; (treatment: MLN4924 1 uM, 8 h) 2.35 ± 0.51.

LSDFEECEETGELFEEPAPQALAT [FCHSD1]: the protein stability index was 5.21 ± 0.22 (treatment: DMSO) and 5.2 ± 0.23 (treatment: MLN4924 1 uM, 8 h).

Consider LSFYNARTKQVLHTFKTRFTQPLL [FSD1], for which the protein stability index by setting is: (treatment: DMSO) 2.45 ± 0.6; (treatment: MLN4924 1 uM, 8 h) 2.43 ± 0.6.

As for LSIQVEEERRAREWLLDAPELPEG [ZMAT5], the protein stability index is, setting by setting: (treatment: DMSO) 4.71 ± 0.34; (treatment: MLN4924 1 uM, 8 h) 5.06 ± 0.41.

For LSNLQKESRACLERIQELEDLLAK [LMNB1], the protein stability index came to 3.52 ± 0.15 (treatment: DMSO) and 3.67 ± 0.23 (treatment: MLN4924 1 uM, 8 h).
